Reference: patent US20230279138A1 (CHIA TAI TIANQING PHARMACEUTICAL GROUP, published 2023)

Legend:
[1] = biological target: T1, CD20 on Raji cells (CD20+/CD3- cells) (human, UniProt P11836 1-297); assay: cell-based or functional assay
T1 sequence (looked up): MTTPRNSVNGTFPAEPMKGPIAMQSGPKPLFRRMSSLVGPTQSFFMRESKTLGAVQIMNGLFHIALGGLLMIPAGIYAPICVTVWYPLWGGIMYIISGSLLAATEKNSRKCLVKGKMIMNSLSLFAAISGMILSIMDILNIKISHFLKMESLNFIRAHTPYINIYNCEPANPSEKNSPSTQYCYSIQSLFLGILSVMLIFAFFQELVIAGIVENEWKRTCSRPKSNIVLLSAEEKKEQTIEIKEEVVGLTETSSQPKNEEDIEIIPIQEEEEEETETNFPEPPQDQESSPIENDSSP

[2] = biological target: T1, CD20 on Raji cells (CD20+/CD3- cells); assay: flow cytometry on Raji cells (CD20+/CD3-)
Method: (§1) After incubation, the cells were washed twice with cold 1% BSA/1×PBS. […] After being washed twice, the geometric mean fluorescence (MFI) of the stained cells was measured using a FACS Canto II […] (BD Biosciences). Wells containing no antibody or containing only fluorescent secondary antibody were used to establish background fluorescence. The EC50 values for cell binding were determined using GraphPad Prism 5 software (GraphPad Software, La Jolla, Calif.); each value was calculated by four-parameter non-linear regression analysis.

[3] = biological target: T1, CD20 on Raji cells (CD20+/CD3- cells); assay: FACS on Raji cells after 0, 1, 4 or 7 days at 37 C in human serum
Method: as §1
(§2) The antibody was mixed with freshly collected human serum and the proportion of serum in the mixture sample was ensured to be >95%. The mixture sample was aliquoted and incubated at 37° C. for 0-14 days. […] The bindings of each sample to Raji or Jurkat cells was analyzed by FACS.

[4] = biological target: T1, CD20 on Raji cells (CD20+/CD3- cells); assay: cell-based or functional assay; remark: listed apart in the source
[5] = biological target: T1, CD20 on Raji cells (CD20+/CD3- cells); assay: cell-based or functional assay; remark: listed apart in the source
[6] = biological target: T1, CD20 on Raji cells (CD20+/CD3- cells); assay: cell-based or functional assay; remark: listed apart in the source
[7] = biological target: T2, CD3 on Jurkat cells (CD3+/CD20- cells) (human, UniProt P07766 23-207; P04234 22-171; P09693 23-182); assay: flow cytometry on Jurkat 2B8 cells (CD3+/CD20-)
T2 construct: whole, on cells; also called Jurkat 2B8
T2 sequence (P07766 23-207, chain 1 of 3): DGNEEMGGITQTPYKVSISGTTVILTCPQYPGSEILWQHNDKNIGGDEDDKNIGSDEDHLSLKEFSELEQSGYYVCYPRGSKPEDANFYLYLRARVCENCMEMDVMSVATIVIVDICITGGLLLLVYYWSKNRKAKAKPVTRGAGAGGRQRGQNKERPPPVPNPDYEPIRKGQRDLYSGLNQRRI
T2 sequence (P04234 22-171, chain 2 of 3): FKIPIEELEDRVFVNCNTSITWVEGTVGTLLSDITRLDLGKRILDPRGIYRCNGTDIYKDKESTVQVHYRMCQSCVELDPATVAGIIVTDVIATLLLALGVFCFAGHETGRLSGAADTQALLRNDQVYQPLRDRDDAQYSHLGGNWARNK
T2 sequence (P09693 23-182, chain 3 of 3): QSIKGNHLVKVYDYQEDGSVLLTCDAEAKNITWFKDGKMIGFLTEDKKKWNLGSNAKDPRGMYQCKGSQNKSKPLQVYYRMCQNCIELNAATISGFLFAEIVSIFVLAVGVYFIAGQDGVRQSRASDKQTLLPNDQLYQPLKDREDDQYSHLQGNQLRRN
Method: as §1

[8] = biological target: T1, CD20 on Raji cells (CD20+/CD3- cells); assay: FACS on Raji cells after 14 days at 37 C in human serum
Method: as §1, §2

[9] = biological target: T2, CD3 on Jurkat cells (CD3+/CD20- cells); assay: cell-based or functional assay

EC50 of CD25 expression, CD4+ T cells with Raji cells [1]: 0.0006 nM | EC50 of CD25 expression, CD8+ T cells with Raji cells [1]: 0.0008 nM | EC50 [2]: 2.5 nM | TOP MFI [2]: 66700 MFI | EC50 (read off the curve) [3]: ~6 nM | EC50 of CD69 expression, CD4+ T cells with Raji cells [4]: 0.0002 nM | EC50 of CD69 expression, CD8+ T cells with Raji cells [4]: 0.0004 nM | EC50 of IL-2 release, CD4+ T cells with Raji cells [5]: 0.0114 nM | EC50 of TNF-α release, CD4+ T cells with Raji cells [5]: 0.0135 nM | EC50 [7]: 41.7 nM | TOP MFI [7]: 4080 MFI | EC50 (read off the curve) [8]: ~6 nM | Biological activity (%) (EC50 of reference/EC50 of test sample; Jurkat luciferase reporter with Raji cells), lyophilized formulation, T0 [9]: 114%
B1: W3278-U2T3.F18R-1.uIgG4.SP (bispecific antibody)
heavy 1: QVQLQQPGAELVKPGASVKMSCKASGYTFTSYNMHWVKQTPGRGLEWIGAIYPGNGDTSYNQKFKGKATLTADKSSSTAYMQLSSLTSEDSAVYYCARSTYYGGDWYFNVWGAGTTVTVSAASTKGPSVFPLAPCSRSTSESTAALGCLVKDYFPEPVTVSWNSGALTSGVHTFPAVLQSSGLYSLSSVVTVPSSSLGTKTYTCNVDHKPSNTKVDKRVGGGGSGGGGSQVQLVQSGAEVKKPGSSVKVSCKASGFAFTDYYIHWVRQAPGQGLEWMGWISPGNVNTKYNENFKGRVTITADKSTSTAYMELSSLRSEDTAVYYCARDGYSLYYFDYWGQGTLVTVLEDLKNVFPPEVAVFEPSEAEISHTQKATLVCLATGFYPDHVELSWWVNGKEVHSGVCTDPQPLKEQPALQDSRYALSSRLRVSATFWQNPRNHFRCQVQFYGLSENDEWTQDRAKPVTQIVSAEAWGRYGPPCPPCPAPEFLGGPSVFLFPPKPKDTLMISRTPEVTCVVVDVSQEDPEVQFNWYVDGVEVHNAKTKPREEQFNSTYRVVSVLTVLHQDWLNGKEYKCKVSNKGLPSSIEKTISKAKGQPREPQVYTLPPCQEEMTKNQVSLWCLVKGFYPSDIAVEWESNGQPENNYKTTPPVLDSDGSFFLYSRLTVDKSRWQEGNVFSCSVMHEALHNHYTQKSLSLSLG
heavy 2: QVQLQQPGAELVKPGASVKMSCKASGYTFTSYNMHWVKQTPGRGLEWIGAIYPGNGDTSYNQKFKGKATLTADKSSSTAYMQLSSLTSEDSAVYYCARSTYYGGDWYFNVWGAGTTVTVSAASTKGPSVFPLAPCSRSTSESTAALGCLVKDYFPEPVTVSWNSGALTSGVHTFPAVLQSSGLYSLSSVVTVPSSSLGTKTYTCNVDHKPSNTKVDKRVESKYGPPCPPCPAPEFLGGPSVFLFPPKPKDTLMISRTPEVTCVVVDVSQEDPEVQFNWYVDGVEVHNAKTKPREEQFNSTYRVVSVLTVLHQDWLNGKEYKCKVSNKGLPSSIEKTISKAKGQPREPQVCTLPPSQEEMTKNQVSLSCAVKGFYPSDIAVEWESNGQPENNYKTTPPVLDSDGSFFLVSRLTVDKSRWQEGNVFSCSVMHEALHNHYTQKSLSLSLG
light 1: QIVLSQSPAILSASPGEKVTMTCRASSSVSYIHWFQQKPGSSPKPWIYATSNLASGVPVRFSGSGSGTSYSLTISRVEAEDAATYYCQQWTSNPPTFGGGTKLEIKRTVAAPSVFIFPPSDEQLKSGTASVVCLLNNFYPREAKVQWKVDNALQSGNSQESVTEQDSKDSTYSLSSTLTLSKADYEKHKVYACEVTHQGLSSPVTKSFNRGEC
light 2: DIVMTQSPDSLAVSLGERATINCKSSQSLLNSRTRKNYLAWYQQKPGQPPKLLIYWASTRQSGVPDRFSGSGSGTDFTLTISSLQAEDVAVYYCTQSHTLRTFGGGTKVEIKPDIQNPDPAVYQLRDSKSSDKSVCLFTDFDSQTQVSQSKDSDVYITDKCVLDMRSMDFKSNSAVAWSQKSDFACANAFQNSIIPEDTFFPSPESS
notes: Human IgG4 S228P, knobs-into-holes; also called WBP3278 lead Ab; W3278 lead Ab
EC50 ratio IL-2 release/Raji cell killing [5]: 22 | EC50 ratio TNFα release/Raji cell killing [5]: 26 | cytotoxicity EC50, CD8+ T cells against NAMALWA cells (FACS) [6]: 0.0468 nM | cytotoxicity EC50, CD8+ T cells against Raji cells (FACS) [6]: 0.00052 nM | cytotoxicity EC50, CD8+ T cells against Ramos cells (FACS) [6]: 0.00125 nM
